Consider eight molecules from patent publication US20130315910A1 (Xencor, published 2013).

B1: G236D/H268D (antibody, human IgG1, kappa)
heavy: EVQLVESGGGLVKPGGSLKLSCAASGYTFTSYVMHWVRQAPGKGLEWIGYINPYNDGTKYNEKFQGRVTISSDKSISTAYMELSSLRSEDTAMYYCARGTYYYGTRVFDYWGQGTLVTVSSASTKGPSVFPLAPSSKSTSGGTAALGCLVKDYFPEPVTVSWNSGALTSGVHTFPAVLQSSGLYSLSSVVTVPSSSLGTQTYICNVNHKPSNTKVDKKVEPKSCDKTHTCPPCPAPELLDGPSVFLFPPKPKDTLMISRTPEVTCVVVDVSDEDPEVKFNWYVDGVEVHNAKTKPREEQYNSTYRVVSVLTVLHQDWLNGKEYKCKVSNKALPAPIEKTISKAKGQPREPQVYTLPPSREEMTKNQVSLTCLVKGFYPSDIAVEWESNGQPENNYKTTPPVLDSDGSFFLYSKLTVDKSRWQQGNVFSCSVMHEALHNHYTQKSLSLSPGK
light: DIVMTQSPATLSLSPGERATLSCRSSKSLQNVNGNTYLYWFQQKPGQSPQLLIYRMSNLNSGVPDRFSGSGSGTEFTLTISSLEPEDFAVYYCMQHLEYPITFGAGTKLEIKRTVAAPSVFIFPPSDEQLKSGTASVVCLLNNFYPREAKVQWKVDNALQSGNSQESVTEQDSKDSTYSLSSTLTLSKADYEKHKVYACEVTHQGLSSPVTKSFNRGEC
notes: HuAM4G7 anti-CD19 IgG1 (m1) with these Fc substitutions, EU index; copies: 2 + 2
B2: L235Y/S267D (antibody, human IgG1, kappa)
heavy: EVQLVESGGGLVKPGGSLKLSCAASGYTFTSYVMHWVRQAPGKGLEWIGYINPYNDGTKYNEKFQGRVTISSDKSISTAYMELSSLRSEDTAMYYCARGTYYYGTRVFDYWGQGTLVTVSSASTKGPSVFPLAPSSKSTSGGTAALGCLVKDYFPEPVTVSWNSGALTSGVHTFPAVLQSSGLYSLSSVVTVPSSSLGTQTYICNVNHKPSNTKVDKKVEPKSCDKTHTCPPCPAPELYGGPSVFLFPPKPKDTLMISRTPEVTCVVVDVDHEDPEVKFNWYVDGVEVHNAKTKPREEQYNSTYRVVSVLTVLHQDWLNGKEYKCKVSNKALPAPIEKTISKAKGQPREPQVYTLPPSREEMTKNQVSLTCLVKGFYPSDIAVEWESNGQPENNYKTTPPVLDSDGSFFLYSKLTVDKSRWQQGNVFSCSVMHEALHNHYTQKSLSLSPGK
light: DIVMTQSPATLSLSPGERATLSCRSSKSLQNVNGNTYLYWFQQKPGQSPQLLIYRMSNLNSGVPDRFSGSGSGTEFTLTISSLEPEDFAVYYCMQHLEYPITFGAGTKLEIKRTVAAPSVFIFPPSDEQLKSGTASVVCLLNNFYPREAKVQWKVDNALQSGNSQESVTEQDSKDSTYSLSSTLTLSKADYEKHKVYACEVTHQGLSSPVTKSFNRGEC
notes: as for B1
B3: L234E/H268D (antibody, human IgG1, kappa)
heavy: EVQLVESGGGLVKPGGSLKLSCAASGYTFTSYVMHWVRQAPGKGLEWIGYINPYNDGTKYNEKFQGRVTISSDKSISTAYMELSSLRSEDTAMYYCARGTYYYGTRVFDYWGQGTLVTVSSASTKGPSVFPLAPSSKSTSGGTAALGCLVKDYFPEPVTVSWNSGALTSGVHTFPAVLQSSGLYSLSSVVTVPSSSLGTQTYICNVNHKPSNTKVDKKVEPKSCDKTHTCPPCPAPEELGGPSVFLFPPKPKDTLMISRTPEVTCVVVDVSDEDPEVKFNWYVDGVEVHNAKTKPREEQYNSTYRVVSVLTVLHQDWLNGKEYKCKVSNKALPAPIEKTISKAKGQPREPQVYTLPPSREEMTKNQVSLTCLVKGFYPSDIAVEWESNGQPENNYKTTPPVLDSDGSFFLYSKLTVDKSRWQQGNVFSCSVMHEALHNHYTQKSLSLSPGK
light: DIVMTQSPATLSLSPGERATLSCRSSKSLQNVNGNTYLYWFQQKPGQSPQLLIYRMSNLNSGVPDRFSGSGSGTEFTLTISSLEPEDFAVYYCMQHLEYPITFGAGTKLEIKRTVAAPSVFIFPPSDEQLKSGTASVVCLLNNFYPREAKVQWKVDNALQSGNSQESVTEQDSKDSTYSLSSTLTLSKADYEKHKVYACEVTHQGLSSPVTKSFNRGEC
notes: as for B1
B4: S267D/A327E (antibody, human IgG1, kappa)
heavy: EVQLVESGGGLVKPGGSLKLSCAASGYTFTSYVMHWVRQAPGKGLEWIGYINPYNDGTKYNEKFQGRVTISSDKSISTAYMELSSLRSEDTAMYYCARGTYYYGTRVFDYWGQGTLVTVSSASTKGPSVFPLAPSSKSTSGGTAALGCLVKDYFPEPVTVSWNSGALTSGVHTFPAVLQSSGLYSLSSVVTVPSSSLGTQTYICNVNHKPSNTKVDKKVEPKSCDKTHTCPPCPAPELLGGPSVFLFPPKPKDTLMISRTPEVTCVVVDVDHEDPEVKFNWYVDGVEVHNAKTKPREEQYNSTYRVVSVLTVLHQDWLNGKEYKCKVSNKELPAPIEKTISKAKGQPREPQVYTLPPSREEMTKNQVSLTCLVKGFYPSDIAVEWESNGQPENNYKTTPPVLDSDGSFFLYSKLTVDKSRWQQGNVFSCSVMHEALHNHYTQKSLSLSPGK
light: DIVMTQSPATLSLSPGERATLSCRSSKSLQNVNGNTYLYWFQQKPGQSPQLLIYRMSNLNSGVPDRFSGSGSGTEFTLTISSLEPEDFAVYYCMQHLEYPITFGAGTKLEIKRTVAAPSVFIFPPSDEQLKSGTASVVCLLNNFYPREAKVQWKVDNALQSGNSQESVTEQDSKDSTYSLSSTLTLSKADYEKHKVYACEVTHQGLSSPVTKSFNRGEC
notes: as for B1
B5: L235S/S267E (antibody, human IgG1, kappa)
heavy: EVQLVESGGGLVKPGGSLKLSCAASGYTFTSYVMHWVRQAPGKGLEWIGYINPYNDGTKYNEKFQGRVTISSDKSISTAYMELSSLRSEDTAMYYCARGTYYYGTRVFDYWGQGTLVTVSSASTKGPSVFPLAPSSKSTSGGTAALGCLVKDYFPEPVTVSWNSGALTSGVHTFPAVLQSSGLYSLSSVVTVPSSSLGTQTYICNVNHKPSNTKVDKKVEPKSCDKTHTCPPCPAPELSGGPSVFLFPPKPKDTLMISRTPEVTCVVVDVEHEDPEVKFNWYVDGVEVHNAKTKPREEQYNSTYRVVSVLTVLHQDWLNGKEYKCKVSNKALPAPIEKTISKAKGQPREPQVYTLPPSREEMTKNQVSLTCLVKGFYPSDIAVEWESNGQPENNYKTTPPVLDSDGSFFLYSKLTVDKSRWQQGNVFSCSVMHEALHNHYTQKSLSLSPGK
light: DIVMTQSPATLSLSPGERATLSCRSSKSLQNVNGNTYLYWFQQKPGQSPQLLIYRMSNLNSGVPDRFSGSGSGTEFTLTISSLEPEDFAVYYCMQHLEYPITFGAGTKLEIKRTVAAPSVFIFPPSDEQLKSGTASVVCLLNNFYPREAKVQWKVDNALQSGNSQESVTEQDSKDSTYSLSSTLTLSKADYEKHKVYACEVTHQGLSSPVTKSFNRGEC
notes: as for B1
B6: S267D/H268E (antibody, human IgG1, kappa)
heavy: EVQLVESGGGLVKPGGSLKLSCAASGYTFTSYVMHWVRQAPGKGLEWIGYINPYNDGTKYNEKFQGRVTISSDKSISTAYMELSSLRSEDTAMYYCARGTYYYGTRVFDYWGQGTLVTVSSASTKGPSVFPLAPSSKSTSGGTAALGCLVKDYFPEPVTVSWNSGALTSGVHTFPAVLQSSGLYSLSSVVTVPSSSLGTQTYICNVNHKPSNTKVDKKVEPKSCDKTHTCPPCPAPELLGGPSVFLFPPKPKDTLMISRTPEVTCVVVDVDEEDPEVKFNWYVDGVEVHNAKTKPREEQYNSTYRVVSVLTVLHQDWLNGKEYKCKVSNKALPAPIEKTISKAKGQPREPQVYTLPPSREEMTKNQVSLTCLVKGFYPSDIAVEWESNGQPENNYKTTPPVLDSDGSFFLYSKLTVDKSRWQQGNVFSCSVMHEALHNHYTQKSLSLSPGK
light: DIVMTQSPATLSLSPGERATLSCRSSKSLQNVNGNTYLYWFQQKPGQSPQLLIYRMSNLNSGVPDRFSGSGSGTEFTLTISSLEPEDFAVYYCMQHLEYPITFGAGTKLEIKRTVAAPSVFIFPPSDEQLKSGTASVVCLLNNFYPREAKVQWKVDNALQSGNSQESVTEQDSKDSTYSLSSTLTLSKADYEKHKVYACEVTHQGLSSPVTKSFNRGEC
notes: as for B1
B7: S267D/A327D (antibody, human IgG1, kappa)
heavy: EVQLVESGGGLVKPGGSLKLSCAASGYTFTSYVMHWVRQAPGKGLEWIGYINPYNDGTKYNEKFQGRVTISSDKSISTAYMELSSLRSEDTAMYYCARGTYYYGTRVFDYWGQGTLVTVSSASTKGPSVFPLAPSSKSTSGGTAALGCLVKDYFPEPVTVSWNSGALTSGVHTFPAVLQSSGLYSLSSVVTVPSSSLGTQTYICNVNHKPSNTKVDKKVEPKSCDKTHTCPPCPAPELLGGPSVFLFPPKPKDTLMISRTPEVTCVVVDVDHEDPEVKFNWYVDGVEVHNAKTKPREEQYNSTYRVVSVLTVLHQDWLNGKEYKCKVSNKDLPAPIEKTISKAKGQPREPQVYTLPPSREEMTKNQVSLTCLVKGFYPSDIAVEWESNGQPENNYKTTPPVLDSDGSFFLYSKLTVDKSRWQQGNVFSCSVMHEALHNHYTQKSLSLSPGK
light: DIVMTQSPATLSLSPGERATLSCRSSKSLQNVNGNTYLYWFQQKPGQSPQLLIYRMSNLNSGVPDRFSGSGSGTEFTLTISSLEPEDFAVYYCMQHLEYPITFGAGTKLEIKRTVAAPSVFIFPPSDEQLKSGTASVVCLLNNFYPREAKVQWKVDNALQSGNSQESVTEQDSKDSTYSLSSTLTLSKADYEKHKVYACEVTHQGLSSPVTKSFNRGEC
notes: as for B1
B8: S267E/H268D (antibody, human IgG1, kappa)
heavy: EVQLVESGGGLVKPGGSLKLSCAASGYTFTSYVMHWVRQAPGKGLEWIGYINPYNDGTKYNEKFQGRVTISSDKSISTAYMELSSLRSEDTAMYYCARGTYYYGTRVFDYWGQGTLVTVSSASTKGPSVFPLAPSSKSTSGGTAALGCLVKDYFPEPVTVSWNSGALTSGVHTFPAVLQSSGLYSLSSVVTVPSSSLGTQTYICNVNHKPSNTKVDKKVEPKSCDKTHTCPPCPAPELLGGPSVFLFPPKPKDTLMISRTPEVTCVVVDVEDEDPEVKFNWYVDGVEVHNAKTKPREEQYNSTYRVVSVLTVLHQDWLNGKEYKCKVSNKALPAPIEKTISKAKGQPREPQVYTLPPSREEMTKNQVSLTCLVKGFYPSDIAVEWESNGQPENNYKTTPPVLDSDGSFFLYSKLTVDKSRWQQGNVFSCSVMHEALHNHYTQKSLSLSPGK
light: DIVMTQSPATLSLSPGERATLSCRSSKSLQNVNGNTYLYWFQQKPGQSPQLLIYRMSNLNSGVPDRFSGSGSGTEFTLTISSLEPEDFAVYYCMQHLEYPITFGAGTKLEIKRTVAAPSVFIFPPSDEQLKSGTASVVCLLNNFYPREAKVQWKVDNALQSGNSQESVTEQDSKDSTYSLSSTLTLSKADYEKHKVYACEVTHQGLSSPVTKSFNRGEC
notes: as for B1

This experiment has as its target T1, human FcγRIIb receptor protein (R&D Systems) (human, UniProt P31994 46-217).
T1 construct: Bought protein injected over captured antibody in Biacore; also called CD32b
T1 sequence (looked up): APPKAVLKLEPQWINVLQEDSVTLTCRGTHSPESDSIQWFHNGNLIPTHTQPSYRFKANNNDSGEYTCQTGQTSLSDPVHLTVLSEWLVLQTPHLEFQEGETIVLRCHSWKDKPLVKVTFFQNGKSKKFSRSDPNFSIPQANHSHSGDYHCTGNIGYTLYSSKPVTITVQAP
The experiment in a line: SPR. How it is done: Variants were screened for receptor affinity using Biacore™ technology, also referred to as Biacore herein, a surface plasmon resonance (SPR) based technology for studying biomolecular interactions in real time. SPR measurements were performed using a Biacore 3000 instrument (Biacore, Piscataway, N.J.). A protein A/G (Pierce Biotechnology) CM5 biosensor chip (Biacore) was generated using a standard primary amine coupling protocol. All measurements were performed using HBS-EP buffer (10 mM HEPES pH 7.4, 0.15 M NaCl, 3 mM EDTA, 0.005% vol/vol surfactant P20, Biacore). Antibodies at 20 nM or 50 nM in HBS-EP buffer were immobilized on the protein A/G surface and FcγRs were injected. After each cycle, the surface was regenerated by injecting glycine buffer (10 mM, pH 1.5). Data were processed by zeroing time and response before the injection of FcγR and by subtracting appropriate nonspecific signals (response of reference channel and injection of running buffer). Kinetic analyses were performed by global fitting of binding data with a 1:1 Langmuir binding model using BIAevaluation software (Biacore).
B1: the “Fold vs WT IgG1” value was 11.6 fold and the Kd came to 126 nM. The corresponding values for B2 are 15.9 fold and 92.2 nM. The like results for B3 were, in that order, 5.89 fold and 249 nM. For B4, the “Fold vs WT IgG1” value came to 12.1 fold and the affinity, expressed as Kd, was 121 nM.

Regarding B5, the Kd was 37800 nM. Consider B6, for which the “Fold vs WT IgG1” value came out at 17.8 fold and the Kd is 82.6 nM.

For the molecule B7, the “Fold vs WT IgG1” value came out at 6.89 fold and the Kd was 213 nM. Turning to B8, the “Fold vs WT IgG1” value was 33.3 fold and the affinity, expressed as Kd, was 44 nM.

What is called Kd is the equilibrium constant for the complex coming apart. Low readings indicate tighter binding, high ones weaker binding.
